Measured values from patent US20260185108A1 (Johns Hopkins, published 2026).

Columns and labels:
[1] = target: T1, CD63 (endogenous, on WT 293F cells) (UniProt P08962 2-238, limits assumed); assay: flow cytometry of CP05-Cy5 on WT 293F cells against 293F/CD63-/- cells
T1 construct: whole, on cells; Compared with the 293F/CD63-/- knockout line as the negative control; also called WT CD63
T1 sequence (looked up): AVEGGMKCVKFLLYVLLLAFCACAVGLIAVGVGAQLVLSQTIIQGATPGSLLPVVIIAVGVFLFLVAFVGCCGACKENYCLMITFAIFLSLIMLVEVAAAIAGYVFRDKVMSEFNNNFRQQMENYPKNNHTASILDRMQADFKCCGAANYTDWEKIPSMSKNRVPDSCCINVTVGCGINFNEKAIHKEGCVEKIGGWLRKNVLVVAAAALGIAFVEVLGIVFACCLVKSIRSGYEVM
Description: (§1) For measurement of surface CD63 abundance and Cy5-CP05 peptide binding, cells were washed in HBSS, released from tissue culture plates using trypsin/EDTA solution, and resuspended at a concentration of 1×10^7 cells per ml in HBSS. Cell suspensions were maintained on ice, diluted to a concentration of 1×10^6 cells per ml, incubated with either (i) fluorescently labeled anti-CD63 antibody (catalog no.: 353006; BioLegend) or (ii) CY5-labeled CP05 peptide (NH2-[…](K/Cy5)-amide; Vivitide; molecular weight=[…]). Following the binding reaction, cells were washed five times in PBS and then examined by flow cytometry on a Beckman CytoFlex flow cytometer set at the appropriate excitation and emission wavelengths. The relative brightness was determined for thousands of individual cells in each cell line using Beckman CytExpert software (version 2.3.1.22) to calculate average brightness and CV as well as to generate scatter plots and histograms.
(§2) To determine whether these mutations led to a drop in the cell surface expression of CD63, cell lines were interrogated: the 293F/CD63^{-/-} cell line, the parental 293F cell line, and the F/YA24 cell line by flow cytometry, using a commercially available fluorescently tagged monoclonal anti-CD63 antibody. […]

[2] = target: T2, CD63/Y235A (on F/YA24 cells) (UniProt P08962 2-238, limits assumed); assay: flow cytometry of CP05-Cy5 on F/YA24 cells against 293F and 293F/CD63-/- cells
T2 construct: whole, on cells; F/YA24 cells also carry the endogenous CD63 of 293F cells; also called mutant form of CD63
T2 sequence (looked up): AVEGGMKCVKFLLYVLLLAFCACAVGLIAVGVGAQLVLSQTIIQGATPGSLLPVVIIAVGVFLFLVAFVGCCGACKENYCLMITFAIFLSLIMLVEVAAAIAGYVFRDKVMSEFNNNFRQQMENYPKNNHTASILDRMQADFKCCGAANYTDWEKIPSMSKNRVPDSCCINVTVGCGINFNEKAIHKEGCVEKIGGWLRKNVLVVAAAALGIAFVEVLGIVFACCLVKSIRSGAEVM
Description: as §1, §2

B1: Cy5-labeled CP05 peptide (NH2-CRHSQMTVTSRL(K/Cy5)-amide) (peptide)
peptide: H-CRHSQMTVTSRLK(Cy5)-NH2
notes: Synthetic peptide (Vivitide); the labeled peptide used in the assay has one more Lys(Cy5) and a C-terminal amide; also called CP05-Cy5; Cy5-CP05 peptide
B1: no binding (tested: 0.34 µM and 3.4 µM CP05-Cy5) [1]; no binding (tested: 0.34 µM and 3.4 µM CP05-Cy5) [2].
